Laboratory results from the supplement of paper PMC12636428.

These sequences were tested on Saccharomyces cerevisiae (assay: transcriptional activation domain activity (GFP:mCherry ratio, weighted mean of sorted bins, harmonized to initial dataset scale) (arbitrary fluorescence ratio units); higher = stronger transcriptional activation). Settings: beta-estradiol 1 µM; induction time 4 h.
How it was run: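 For this assay, yeast diploids with a GFP reporter carried barcoded protein tiles at URA3, each fused to an estradiol-inducible synthetic transcription factor. Induction was a 1:5 dilution into SC with 1 uM beta-estradiol for 4 hours at 30 °C, followed by sorting into 8 bins by GFP:mCherry ratio and barcode sequencing. Tiles under 50 reads were dropped, and activation activity was calculated as the read-weighted mean of bin median fluorescence, averaged across barcodes and linearly mapped onto the initial dataset scale.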

Sequence	transcriptional activation domain activity
IVVYGANGGNLGENCNREFSERCVPVFRARATVFAELTWLILVSAWEFKSIRR	51000
KAEPKKEAAKGPRNVSGVTVDDKKEGKGKAAKKGDRVEMRYIGKLKSGKVFDS	36900
FLLFLSFGGLGGGIYSLCFGHIFSSLFLLFVLFSTSFPYMGPQLHVVMMPTCT	40500
MPNKLVYEICFVHLTINCLCRGCLMYCALYIILIIKYHNHLLYFIFFNFMAIP	38200
STKVLLRVFIPVAGYFWISLNYSLVSLAFHVKFNNYFGNIGFFIWWMLNWLTM	57300
EGGEKGTKEGGEKKEGAGEKEGGEKKEGGEKEGAKEGGEIGAKEGEEKKEGGE	17500
PKKLQEDTELETEQENQMLNQVGNINYTHDFSLSHEIDDLIRELFGVGTPQKL	65300
KGLNGPKKEDGGDGESRKRGRPEEDEEERKEGGGGGRRARRRERLQGAAGGGS	18600
WSVFFFFFFFFCLNLSVLWLWFFRLFFFFFFLCAFDVLCLPLSCPPLFRPKAT	48200
GLLSSCVLIVLVIHHPFLLSDNRHYTFYIWRRVYMFHPIVPYALIPAYLACAW	66700
SFCVRHKFMWPLFRTRFIPCPVVSLIVLPTLFIVAYLPQVAFLAIFQGNLAWF	58000
GHKGRHLAEAAGLALGAKKLMKHRSHSRPGRSPSPEGHHRARHLAEAGIAAAG	43900
MLLHVFRLIEIIEILWISCICAILLVVFVILEVCNLFVLGRKISFLMFCVWVI	54400
FSLIKGLGSLVPLNKLRQESLLEEEDENNTEPSDFRTIVEEFQSEYNISDILS	45000
PLLACQVAYGFLVVFFSYSLIEEQVGCVIYYEHLVMLCWLVIIMPPNALLSTV	58700
LHFCHRLLSRISSLLFCFLFYCLDVLFLSLFLLCFFFPFFFFLFFLFLFQHFA	54800
MSNGSSFVQCIDTRLCLLYSLVFREHMAFHPIISSFLFLIRLLILLASLFLFF	48500
NSLRNLFDLVGCSSLCSSSQKRGFVGRLVVDFASCAWPPVIVILLIWISLFWW	39200
RYLLLSIRDWPCIYIHDLFVFIVSLITDVPDDFLILNFQDLLFFFFVFVFLIF	66200
DSAMRAIYSFRNSYIAFILFNGSIYYYVARFFGFYHKVLDSPIVGFRWVDLHL	58300
GLGKEGESYIVAMGAVSGGIIIYRRIEGGAGLVEVVRNSTAVARTTAVMIALE	42400

Sequence	transcriptional activation domain activity
PKDEKKQEDDQKAKDGSKSEGDLGEKKEEKVEEKKDDDNKSGEKKDEASKSGD	28000
SNVFPTQLLARHQKEIKRFKRMLAIVRWFEVCFALLRIKYLMKLFWFSVEFCN	50000
MGARYWILECGDWLMAKAVPNSLPIVSFLFLLFFPWPFFVFILYLTLIALYSS	42400
SHTAEPSDADGEGTRATRRAKTKSKSTGKSREAGKRSNGARKGGGRADSGGKD	46800
MSTEVKAAHAGKARQKAWKPKVKTGCVTCRNRRVKCDEAKPDCRRCVAAGRKC	10800
APPSSKPSPPPTSAASPAAPRAASPRPRAASSAGCRPRRGATRCCSRARASRS	39400
FTYMDRLQLIQAPFPWRDRMALTAITEFVATYYQNMHVDITVTMRKLGYLEKL	60800
MQGGRLVIYLYYFLMEVFNVLFFLFLFRCWSLLPSALGGGLCYLFLVWGLLFC	67000
MSVLYIEDTFPSCFIKFKELVVCSRLCMMFPFQYQFASLLLYLILLLAYHLFL	54300
MHLLTFTIPSYRAVCKVFPFLFWLSLFLTHWFVYSFSFLQAFFSFCFTWAWCV	69900
LCLERLFPPLMREIFCELGIASQVFQRIVFTAIYRRICGTGPHLAHLEAKALE	30100
QQGGGAAASSSGAAQTTSDHVHKDEKEEDKDRDKKKEEEEKEKRKKRREKNKK	23700
ISKTIAVLELACDVLHHNPGVFIISVLLLVIFIAFTAIWMVLFNRLWLIGHLN	56000
APAAEPVAAATIEEAPKETAEASTATEETAEEKKEEKEKKEKEKKAKLGRRLS	30700
VSFFFFLSFFFPPFFFFSLSFLLSFFLSFLLPFPFFLSFFPFFPGCAAPSRSN	32200
FHLPCLSLRWWRWCWGHYRLILVVLCLVLLPCLVFLDTIYVYKAFFQIKLENT	34500
MAGENGGLGAFRDGSADGVGRGADLVSSLEQTRGYQMEMFQESLRRNIIVAMD	62800
MWCTRWFLPLLLLPLPTAPPYFLLLFLFSLTMHAKPCFYCIVLLTTLFVSSCY	47800
AAKRKTRADEHEEDEEEEHREATVVRRARGRPRKVEAPEPEAPVRATRGRATK	17000
LTYRVYIMGIGIWMTYLGIGWFLCIILPFLFRFCRLMFWWRKLCFLQALFFFF	62200
LKQMAGRDFEDILQCIMPVFEGLLPPPHDDLVMSLLFTLAFWHALAKLRLHTE	56300
